Earlier results as cited in PMC2812830.

Target: LAT pY191 phosphopeptide pY191 peptide (Homo sapiens) (UniProt O43561)
Assay: ITC

- Kd: 286 nM
Substance: Grb2 (from UniProt P62993)
